Measured values published in patent US7470669B2, “Isolated polypeptide comprising a leptin fragment” (Serono Genetics Institute, S.A., priority 1999, dated 2008).

Assays:
[1] = test system: ob/ob mice; assay: Food intake of ob/ob mice under daily subcutaneous injections; format: in vivo, mouse; conditions: daily subcutaneous injections of 25 μg over a 12 day period
Procedure: A synthetic peptide with a sequence identical to that of mouse leptin between residues 117-138 was obtained and found to stimulate the oleate-induced binding of ^125I-LDL in primary cultures of rat hepatocytes (FIG. 11B, insert). Daily subcutaneous injections of 25 μg of this synthetic leptin peptide to ob/ob mice had no effect on the food intake over a 12 day period (7.6±0.4 g/day in ob/ob receiving saline and 6.7±0.3 g/day in ob/ob receiving peptide; n=4, NS). Daily injections of 25 μg of mouse leptin caused a reduction of food intake to 4.7±0.5 g/day (n=3; p<0.003 versus controls).

[2] = target: LRP (Homo sapiens, UniProt Q07954); assay: Degradation of activated α2-macroglobulin (LRP ligand); format: cell-based; conditions: leptin up to 2 μg/mL
Sequence of LRP (Q07954 20-4544): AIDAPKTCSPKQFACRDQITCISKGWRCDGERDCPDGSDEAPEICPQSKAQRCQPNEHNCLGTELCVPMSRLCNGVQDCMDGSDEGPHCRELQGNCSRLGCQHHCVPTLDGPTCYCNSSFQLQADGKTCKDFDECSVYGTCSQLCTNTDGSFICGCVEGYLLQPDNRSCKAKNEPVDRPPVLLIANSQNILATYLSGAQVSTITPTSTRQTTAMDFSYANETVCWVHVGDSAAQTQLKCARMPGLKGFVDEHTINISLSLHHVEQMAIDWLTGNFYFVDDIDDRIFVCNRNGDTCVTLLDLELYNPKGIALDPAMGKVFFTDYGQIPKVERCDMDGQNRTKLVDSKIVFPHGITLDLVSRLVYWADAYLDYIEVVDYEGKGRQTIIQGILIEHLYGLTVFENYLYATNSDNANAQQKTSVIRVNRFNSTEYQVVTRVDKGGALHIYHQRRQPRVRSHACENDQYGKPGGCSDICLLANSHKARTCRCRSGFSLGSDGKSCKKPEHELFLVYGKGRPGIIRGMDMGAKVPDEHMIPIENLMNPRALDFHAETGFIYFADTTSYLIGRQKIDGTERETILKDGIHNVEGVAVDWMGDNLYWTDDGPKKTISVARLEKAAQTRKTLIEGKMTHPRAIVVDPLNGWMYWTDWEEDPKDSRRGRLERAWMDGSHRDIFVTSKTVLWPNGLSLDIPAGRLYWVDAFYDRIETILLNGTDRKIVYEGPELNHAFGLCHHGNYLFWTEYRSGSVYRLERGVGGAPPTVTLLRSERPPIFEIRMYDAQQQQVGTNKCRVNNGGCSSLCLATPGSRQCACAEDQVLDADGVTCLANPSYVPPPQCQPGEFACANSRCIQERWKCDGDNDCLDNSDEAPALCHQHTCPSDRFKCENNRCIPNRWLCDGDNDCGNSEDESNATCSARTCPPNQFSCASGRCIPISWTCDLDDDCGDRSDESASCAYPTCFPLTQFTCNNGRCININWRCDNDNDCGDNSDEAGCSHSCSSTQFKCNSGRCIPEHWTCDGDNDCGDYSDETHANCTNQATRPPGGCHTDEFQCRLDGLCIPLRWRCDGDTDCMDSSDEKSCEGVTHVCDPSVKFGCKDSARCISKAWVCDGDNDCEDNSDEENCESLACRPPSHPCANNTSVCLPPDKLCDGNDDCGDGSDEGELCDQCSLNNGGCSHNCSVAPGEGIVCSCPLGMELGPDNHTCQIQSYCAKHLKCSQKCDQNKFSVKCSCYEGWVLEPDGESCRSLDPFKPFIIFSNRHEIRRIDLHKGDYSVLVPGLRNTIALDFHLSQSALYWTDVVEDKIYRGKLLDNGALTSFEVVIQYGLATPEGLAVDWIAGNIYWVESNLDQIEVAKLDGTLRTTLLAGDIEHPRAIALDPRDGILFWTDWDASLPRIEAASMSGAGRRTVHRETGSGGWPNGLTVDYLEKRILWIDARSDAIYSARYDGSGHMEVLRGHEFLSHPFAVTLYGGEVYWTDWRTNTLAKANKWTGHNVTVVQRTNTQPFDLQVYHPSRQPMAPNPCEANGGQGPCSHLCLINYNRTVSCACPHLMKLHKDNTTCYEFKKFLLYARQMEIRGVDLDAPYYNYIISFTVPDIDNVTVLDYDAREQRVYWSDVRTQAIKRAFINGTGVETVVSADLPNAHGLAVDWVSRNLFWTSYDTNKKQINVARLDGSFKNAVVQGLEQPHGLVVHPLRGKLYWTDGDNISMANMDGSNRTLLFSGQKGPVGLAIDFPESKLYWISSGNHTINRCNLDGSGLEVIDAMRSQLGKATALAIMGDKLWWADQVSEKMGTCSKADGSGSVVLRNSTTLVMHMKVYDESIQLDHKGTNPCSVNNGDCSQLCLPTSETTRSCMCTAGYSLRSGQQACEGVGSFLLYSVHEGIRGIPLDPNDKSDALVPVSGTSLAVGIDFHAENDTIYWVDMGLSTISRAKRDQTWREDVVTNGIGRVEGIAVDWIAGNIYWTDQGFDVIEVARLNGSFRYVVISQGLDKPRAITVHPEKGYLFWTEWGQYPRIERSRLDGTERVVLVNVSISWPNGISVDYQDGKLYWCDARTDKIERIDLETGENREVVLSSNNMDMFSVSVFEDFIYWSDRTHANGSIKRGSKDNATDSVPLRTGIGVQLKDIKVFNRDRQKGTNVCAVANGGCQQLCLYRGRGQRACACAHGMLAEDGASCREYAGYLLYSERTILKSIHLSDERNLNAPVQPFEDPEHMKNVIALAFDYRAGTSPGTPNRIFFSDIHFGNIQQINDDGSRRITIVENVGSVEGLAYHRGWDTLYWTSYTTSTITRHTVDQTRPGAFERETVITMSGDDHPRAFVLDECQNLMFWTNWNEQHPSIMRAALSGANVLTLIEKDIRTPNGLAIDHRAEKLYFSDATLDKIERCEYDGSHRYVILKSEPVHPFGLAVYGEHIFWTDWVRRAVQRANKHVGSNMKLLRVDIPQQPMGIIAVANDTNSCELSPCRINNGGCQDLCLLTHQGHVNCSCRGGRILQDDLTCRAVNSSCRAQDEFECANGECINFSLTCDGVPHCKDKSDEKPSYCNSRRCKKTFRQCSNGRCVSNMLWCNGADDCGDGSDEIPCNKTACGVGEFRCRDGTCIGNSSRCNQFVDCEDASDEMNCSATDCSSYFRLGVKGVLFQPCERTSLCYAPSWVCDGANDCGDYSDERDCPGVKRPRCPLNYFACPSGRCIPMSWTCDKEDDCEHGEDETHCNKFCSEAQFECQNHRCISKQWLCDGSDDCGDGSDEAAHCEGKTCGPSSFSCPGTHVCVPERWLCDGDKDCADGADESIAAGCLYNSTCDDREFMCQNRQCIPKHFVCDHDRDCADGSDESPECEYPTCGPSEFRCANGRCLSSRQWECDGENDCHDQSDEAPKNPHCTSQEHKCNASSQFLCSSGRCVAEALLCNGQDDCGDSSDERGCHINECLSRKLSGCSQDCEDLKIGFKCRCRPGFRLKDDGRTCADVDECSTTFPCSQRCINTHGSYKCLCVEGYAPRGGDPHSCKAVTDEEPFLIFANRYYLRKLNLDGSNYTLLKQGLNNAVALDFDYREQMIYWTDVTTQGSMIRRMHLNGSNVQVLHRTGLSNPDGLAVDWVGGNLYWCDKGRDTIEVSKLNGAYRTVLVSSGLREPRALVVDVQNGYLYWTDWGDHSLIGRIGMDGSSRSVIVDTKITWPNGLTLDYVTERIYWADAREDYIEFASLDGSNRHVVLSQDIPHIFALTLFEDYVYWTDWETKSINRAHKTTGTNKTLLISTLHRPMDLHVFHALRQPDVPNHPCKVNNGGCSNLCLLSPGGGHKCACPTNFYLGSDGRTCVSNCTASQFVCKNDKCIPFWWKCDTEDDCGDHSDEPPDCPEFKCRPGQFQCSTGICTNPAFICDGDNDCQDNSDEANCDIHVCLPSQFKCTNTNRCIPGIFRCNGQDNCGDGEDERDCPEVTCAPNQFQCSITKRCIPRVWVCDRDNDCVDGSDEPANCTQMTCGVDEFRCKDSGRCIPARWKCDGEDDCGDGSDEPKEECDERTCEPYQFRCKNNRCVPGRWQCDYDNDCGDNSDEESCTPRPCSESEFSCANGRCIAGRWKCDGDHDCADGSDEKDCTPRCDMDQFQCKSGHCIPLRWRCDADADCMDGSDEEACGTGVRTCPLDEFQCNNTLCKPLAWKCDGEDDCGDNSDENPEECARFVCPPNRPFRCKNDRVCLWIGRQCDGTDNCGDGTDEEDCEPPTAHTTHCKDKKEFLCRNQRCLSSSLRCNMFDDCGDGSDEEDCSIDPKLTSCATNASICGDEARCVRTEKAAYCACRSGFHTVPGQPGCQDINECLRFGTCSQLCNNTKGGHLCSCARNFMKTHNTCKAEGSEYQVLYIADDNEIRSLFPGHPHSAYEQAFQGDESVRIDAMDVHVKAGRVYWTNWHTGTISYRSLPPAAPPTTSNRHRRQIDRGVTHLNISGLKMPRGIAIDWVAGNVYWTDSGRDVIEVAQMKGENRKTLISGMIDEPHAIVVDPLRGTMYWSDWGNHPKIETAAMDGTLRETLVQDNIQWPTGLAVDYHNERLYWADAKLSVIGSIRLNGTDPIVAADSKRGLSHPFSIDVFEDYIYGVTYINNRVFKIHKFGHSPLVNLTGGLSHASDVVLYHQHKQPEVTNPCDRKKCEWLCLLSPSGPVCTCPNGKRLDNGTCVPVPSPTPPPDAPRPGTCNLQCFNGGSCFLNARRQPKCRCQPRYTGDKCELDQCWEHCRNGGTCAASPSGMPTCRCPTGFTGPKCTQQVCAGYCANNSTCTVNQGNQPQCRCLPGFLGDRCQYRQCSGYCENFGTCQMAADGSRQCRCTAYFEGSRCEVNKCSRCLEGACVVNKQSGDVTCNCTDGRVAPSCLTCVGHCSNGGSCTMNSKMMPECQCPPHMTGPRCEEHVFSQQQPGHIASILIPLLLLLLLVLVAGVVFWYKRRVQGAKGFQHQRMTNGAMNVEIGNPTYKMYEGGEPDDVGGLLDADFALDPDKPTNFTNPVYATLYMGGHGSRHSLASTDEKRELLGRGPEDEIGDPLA

[3] = target: T1, LSR α (Homo sapiens, UniProt Q86X29); assay: 125I-leptin binding in CHO-K1 cells transiently transfected with LSR α; format: cell-based; conditions: transient transfection with LSR α plasmid; 10 ng/mL 125I-leptin
T1 construct: The full-length LSR α, α′, and β clones were reconstructed in pTracer-CMV2 vector; expressed in transfected cells; host or cells: CHO-K1, transient (Fugene), pTracer-CMV2
T1 sequence (Q86X29 1-649): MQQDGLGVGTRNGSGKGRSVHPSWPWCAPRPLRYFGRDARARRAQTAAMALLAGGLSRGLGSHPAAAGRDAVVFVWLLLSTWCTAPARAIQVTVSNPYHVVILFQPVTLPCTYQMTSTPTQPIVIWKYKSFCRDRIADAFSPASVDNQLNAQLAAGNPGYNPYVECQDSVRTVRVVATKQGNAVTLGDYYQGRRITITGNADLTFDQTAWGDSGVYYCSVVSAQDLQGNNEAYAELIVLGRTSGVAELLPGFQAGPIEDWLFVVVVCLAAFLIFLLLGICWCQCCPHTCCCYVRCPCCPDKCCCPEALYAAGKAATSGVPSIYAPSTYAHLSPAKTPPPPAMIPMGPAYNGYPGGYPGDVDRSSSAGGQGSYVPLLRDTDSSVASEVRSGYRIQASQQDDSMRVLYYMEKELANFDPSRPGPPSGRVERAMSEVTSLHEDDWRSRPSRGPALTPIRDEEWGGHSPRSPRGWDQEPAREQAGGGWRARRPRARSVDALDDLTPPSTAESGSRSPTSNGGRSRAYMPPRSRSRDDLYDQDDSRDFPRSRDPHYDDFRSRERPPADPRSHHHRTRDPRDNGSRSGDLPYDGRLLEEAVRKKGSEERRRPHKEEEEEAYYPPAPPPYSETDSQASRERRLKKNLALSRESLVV
Procedure: FIGS. 3A, 3B, 3C, and 3D show the effect of LSR subunit transfection on leptin binding and degradation in CHO-K1 cells. For FIG. 3A, CHO-K1 cells were transfected with increasing concentrations of the α, (□), α′ (▪) or β (◯) LSR plasmid, or vector alone (●) using Fugene transfection reagent. After 48 h, the cells were washed once in PBS and incubated at 37° C. for 2 h with 10 ng/mL of ^125I-leptin in DMEM containing 0.2% (w/v) BSA, 2 mM CaCl2 and 5 mM HEPES, pH 7.4 (Buffer A). The monolayers were washed and lysed with 0.1 N NaOH containing 0.24 mM EDTA, and the lysates were counted. The results are shown as the amount of cell-associated ^125I-leptin. For FIG. 3B, lysates were prepared from CHO-K1 wild type, stable transfectants of vector or LSR α′ subunit, and PLC, and separated on a 10% SDS-polyacrylamide gel under denaturing and reduced conditions. After transfer to nitrocellulose, Western blots were performed using anti-LSR 170 antibody (can also be done with the human equivalent, 93A). […] For FIGS. 3C and 3D, confluent monolayers of stable-transfected cell lines expressing LSR α′ subunit (▪) or vector alone (●) were washed once in PBS and incubated at 37° C. for 2 h with increasing concentrations of ^125I-leptin in Buffer A. The amount of cell-associated (FIG. 3C) and degraded (FIG. 3D) ^125I-leptin was then measured as described herein. […]

Substance	food intake [1] [g/day]	degradation of activated α2-macroglobulin, the preferred LRP ligand [2]	Leptin binding to CHO-K1 cells [3]
CSLPQTSGLQKPESLDGVLEAS (listed as Mus musculus) [mouse peptide, mouse leptin fragment residues 117-138, 22-mer]	6.7 ± 0.3	–	–
leptin: plasma protein of 16 kDa produced by adipocytes; recombinant human or mouse leptin, species depends on the experiment	–	no detectable effect	remained at levels similar to those seen with the vector alone
